The values below come from patent US20260078196A1 (TJ BIOPHARMA SHANGHAI, published 2026).

The target of assay [1] is T1, human MUC16 on cells (human, UniProt Q8WXI7 1-14507).
T1 construct: whole, on cells; also called huMUC16; MUC16 on OVCAR3 and SNU216 cells
Kind of assay: flow cytometry (MFI GeoMean) on OVCAR3 cells, nM is the unit of the x axis Log10[Ab] (nM). (In flow cytometry, cells or beads pass a laser one at a time.)

The next assay addresses T2, human MUC16 (human).
T2 construct: also called MUC16 antigen of the kinetic assay
In words: binding kinetics, sensorgrams in RU in FIG. 14B, model printed: Kinetics 1:1; form of the MUC16 antigen not given.

The target of another assay is T3, huMUC16, AA13789-14451.
T3 construct: also called MUC16 Antigen (human MUC16 AA13789-14451)
T3 chain: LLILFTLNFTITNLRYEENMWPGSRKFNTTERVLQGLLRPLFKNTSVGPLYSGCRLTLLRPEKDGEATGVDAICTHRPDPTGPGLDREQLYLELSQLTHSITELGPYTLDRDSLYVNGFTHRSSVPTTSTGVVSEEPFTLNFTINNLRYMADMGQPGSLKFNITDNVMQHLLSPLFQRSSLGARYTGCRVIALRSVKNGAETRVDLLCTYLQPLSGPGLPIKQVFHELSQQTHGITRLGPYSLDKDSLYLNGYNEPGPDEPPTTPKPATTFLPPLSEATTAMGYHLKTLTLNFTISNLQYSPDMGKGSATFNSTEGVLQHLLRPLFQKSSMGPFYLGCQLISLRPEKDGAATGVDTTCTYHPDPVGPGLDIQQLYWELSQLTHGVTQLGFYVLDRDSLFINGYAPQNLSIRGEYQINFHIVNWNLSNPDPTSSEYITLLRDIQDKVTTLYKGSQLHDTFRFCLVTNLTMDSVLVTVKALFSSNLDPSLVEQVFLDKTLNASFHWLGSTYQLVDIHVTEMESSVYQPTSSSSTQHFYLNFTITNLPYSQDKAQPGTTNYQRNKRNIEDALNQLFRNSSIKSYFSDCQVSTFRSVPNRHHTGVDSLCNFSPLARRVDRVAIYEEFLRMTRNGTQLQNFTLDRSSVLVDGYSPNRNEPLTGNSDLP
In words: binding ELISA on huMUC16 AA13789-14451.

In a further assay the target is T4, huMUC16, AA14198-14507.
T4 chain: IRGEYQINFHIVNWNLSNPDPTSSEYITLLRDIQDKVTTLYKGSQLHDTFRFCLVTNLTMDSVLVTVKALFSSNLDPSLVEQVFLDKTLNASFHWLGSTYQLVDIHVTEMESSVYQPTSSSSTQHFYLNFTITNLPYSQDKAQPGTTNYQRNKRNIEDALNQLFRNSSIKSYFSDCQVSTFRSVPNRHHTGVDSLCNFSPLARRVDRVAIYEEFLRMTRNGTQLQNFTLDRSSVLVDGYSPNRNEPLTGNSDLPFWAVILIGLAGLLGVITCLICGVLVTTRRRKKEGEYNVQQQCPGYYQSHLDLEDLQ
Kind of assay: binding ELISA on huMUC16 AA14198-14507. In general terms: An ELISA detects its analyte on a solid surface through an enzyme-linked reagent.

Assay [2] addresses T1, human MUC16 on cells. In words: flow cytometry (GMFI) on OVCAR3 cells, nM is the unit of the x axis Log10[Ab] (nM).
The target in assay [3] is T5, HEK293-MUC16 (13810-14507) (human, UniProt Q8WXI7 13810-14507).
T5 construct: range 13810-14507; also called MUC16 overexpressed HEK293 cells
T5 sequence: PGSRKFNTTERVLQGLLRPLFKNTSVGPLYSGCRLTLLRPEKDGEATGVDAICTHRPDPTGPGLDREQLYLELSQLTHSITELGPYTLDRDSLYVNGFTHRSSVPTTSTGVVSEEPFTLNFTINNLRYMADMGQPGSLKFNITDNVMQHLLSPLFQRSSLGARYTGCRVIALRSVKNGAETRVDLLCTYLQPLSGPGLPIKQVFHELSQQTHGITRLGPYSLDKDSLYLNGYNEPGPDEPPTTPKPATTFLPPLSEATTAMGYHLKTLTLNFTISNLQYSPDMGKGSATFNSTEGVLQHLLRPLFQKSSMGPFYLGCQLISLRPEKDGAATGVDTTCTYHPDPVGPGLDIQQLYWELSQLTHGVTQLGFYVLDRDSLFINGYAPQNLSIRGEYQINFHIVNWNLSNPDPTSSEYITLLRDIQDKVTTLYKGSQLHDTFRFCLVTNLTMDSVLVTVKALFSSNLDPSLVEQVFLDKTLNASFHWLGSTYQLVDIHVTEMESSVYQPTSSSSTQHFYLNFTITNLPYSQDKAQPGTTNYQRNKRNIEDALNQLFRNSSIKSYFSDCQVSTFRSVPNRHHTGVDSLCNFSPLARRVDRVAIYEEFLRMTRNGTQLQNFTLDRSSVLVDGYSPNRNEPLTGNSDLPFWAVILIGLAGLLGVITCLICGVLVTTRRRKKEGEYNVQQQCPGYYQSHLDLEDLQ
Kind of assay: flow cytometry (MFI GeoMean) on HEK293-MUC16 (13810-14507) cells, nM is the unit of the x axis Log10[Ab] (nM).

The target of assay [4] is T1, human MUC16 on cells. In words: flow cytometry (MFI GeoMean) on SNU216 cells, nM is the unit of the x axis Log10[Ab] (nM).
The target of another assay is T6, ROR1 on cells (UniProt Q01973 30-937).
T6 construct: whole, on cells; also called ROR1 endogenous expressed tumor cell A549; ROR1-positive tumor cell lines
In words: flow cytometry (gMFI) on A549 cells.

The next assay deals with T7, 4-1BB on cells (human, UniProt Q07011 24-255).
T7 construct: Species is stated as human for section 2.2 as a whole, not for each cell line; also called HEK293 cells expressing 4-1BB; 4-1BB overexpressed HEK293 cell
T7 sequence (Q07011 24-255): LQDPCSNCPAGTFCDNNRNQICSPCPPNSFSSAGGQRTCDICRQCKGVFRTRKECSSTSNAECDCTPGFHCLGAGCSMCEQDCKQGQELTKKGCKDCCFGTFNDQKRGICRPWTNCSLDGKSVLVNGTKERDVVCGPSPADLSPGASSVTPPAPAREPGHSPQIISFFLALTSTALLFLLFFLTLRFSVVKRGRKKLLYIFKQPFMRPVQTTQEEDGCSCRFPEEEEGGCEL
Kind of assay: flow cytometry (gMFI) on HEK293-h4-1BB cells.

Assay [5] concerns the target T1, human MUC16 on cells. Kind of assay: flow cytometry (GMFI) on OVCAR3 cells, nM is the unit of the x axis Log10[Ab] (nM); curve without upper plateau.

B1: C25 (antibody, V domains shown)
VH: EVQLLESGAEVKKPGSSVKVSCKASGGTFSSYAISWVRQAPGQGLEWMGGIIPIFGTANYAQKFQGRVTITADESTSTAYMELSSLRSEDTAVYYCARDSRKYYYDSSGPALWGFDAFDIWGQGTMVTVSS
VL: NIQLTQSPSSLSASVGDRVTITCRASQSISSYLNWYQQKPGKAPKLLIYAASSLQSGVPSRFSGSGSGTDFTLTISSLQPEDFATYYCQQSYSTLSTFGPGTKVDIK
notes: Anti-MUC16 mAb from a human naive Fab phage library; also called MUC16-C25
Consider B1, for which the EC50 – broadly, the concentration that produces a half-maximal response – in the assay with human MUC16 on cells [1] was 0.242 nM; with human MUC16 on cells [2], 0.179 nM; in assay [3] it was 0.156 nM; in the assay with human MUC16 on cells [4], 0.0978 nM. The dissociation constant (Kd) (as a rule, the concentration at which binding is half-saturated) in the assay with human MUC16 came to 26.9 nM. Further, the koff (in general, the first-order rate constant of dissociation) with human MUC16 was found to be 0.00697 s⁻¹. Moreover, in the assay with human MUC16, the kon – broadly, the second-order rate constant of association – turned out to be 260000 M⁻¹ s⁻¹. The binding result with huMUC16, AA13789-14451 was “binds”; in the assay with huMUC16, AA14198-14507 it was “no binding (tested: 100 nM)”.

B2: 4B-10C9 (second entry of Table 6A, with 9C9 VH and 9C9 VL) (bispecific antibody, human IgG1, kappa)
heavy: not shown
light: DIVLTQSPAITAASLGQKVTITCSASSSVTYMHWYQQKSGTSPKLWIYDISKLASGVPARFSGSGPGTSYSLTISTMEAEDAAIYYCQQWNYPLMTFGGGTKLEIKRTVAAPSVFIFPPSDEQLKSGTASVVCLLNNFYPREAKVQWKVDNALQSGNSQESVTEQDSKDSTYSLSSTLTLSKADYEKHKVYACEVTHQGLSSPVTKSFNRGEC
notes: Label 4B-10C9 is printed twice; this entry holds the 9C9 variable domains and is probably meant as 4B-9C9; also called 10C9 IgG x 4-1BB VHH (label as printed)
For B2, the figures for the “EC50 (read off the curve)” value in the assay with ROR1 on cells and with 4-1BB on cells were about 0.2 nM and about 0.3 nM, respectively.

B3: D20 (antibody, V domains shown)
VH: QVQLVQSGAEVKKPGSSVKVSCKASGGTFSSYAISWVRQAPGQGLEWMGGIIPIFGTANYAQKFQGRVTITADESTSTAYMELSSLRSEDTAVYYCASTPELLWFGELGGAYYFDYWGQGTLVTVSS
VL: NIQLTQSPSTLSASVGDRVTITCRASESISSWLAWYQQKPGEAPKLLIYKASTLENGVPSRFSGSGSETEFTLTISSLQPDDFATYYCQQYRSHWSSTFGPGTKVDIK
notes: Anti-MUC16 mAb
With B3, the binding result in the assay with huMUC16, AA13789-14451 was “binds”; in the assay with huMUC16, AA14198-14507, “no binding (tested: 100 nM)”. The 50% effective concentration (EC50) with human MUC16 on cells [5] came to 14.1 nM.

B4: D30 (antibody, V domains shown)
VH: QVQLVQSGAEVKKPGSSVKVSCKASGGTFSSYAISWVRQAPGQGLEWMGGIIPIFGTANYAQKFQGRVTITADESTSTAYMELSSLRSEDTAVYYCARANFNIYYYYYGMDVWGQGTLVTVSS
VL: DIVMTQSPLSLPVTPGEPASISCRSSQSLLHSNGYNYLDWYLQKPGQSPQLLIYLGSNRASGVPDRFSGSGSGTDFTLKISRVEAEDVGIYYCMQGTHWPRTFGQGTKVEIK
notes: Anti-MUC16 mAb
For B4, the EC50 with human MUC16 on cells [1] came out at 0.38 nM; in the assay with human MUC16 on cells [2], 0.389 nM; in [3], 0.277 nM; with human MUC16 on cells [4], 0.125 nM. Moreover, the binding result is “binds” with huMUC16, AA13789-14451 and “no binding (tested: 100 nM)” with huMUC16, AA14198-14507.

B5: C73 (antibody, V domains shown)
VH: QVQLMQSGAEVKKPGSSVKVSCKASGGTFSSYAISWVRQAPGQGLEWMGGIIPIFGTANYAQKFQGRVTITADESTSTAYMELSSLRSEDTAVYYCAREPPLSNYGDYATEQYYYGMDVWGQGTLVTVSS
VL: not shown
notes: Anti-MUC16 mAb
On to B5, for which the binding result with huMUC16, AA13789-14451 was “binds”; in the assay with huMUC16, AA14198-14507, “no binding (tested: 100 nM)”. The molecule also gave an EC50 with human MUC16 on cells [5] of 50.1 nM.

B6: 4B-8F2 (bispecific antibody, human IgG1, kappa)
heavy: not shown
light: DVVMTQTPLTLSVTIGQPASISCKSSQSLLHSNGKTYLNWLLQRPGQSPNLLIYLVSKLESGVPDRFSGSGSGTDFTLKISRVEAEDLGVYYCLQATYFPYTFGSGTKLEIKRTVAAPSVFIFPPSDEQLKSGTASVVCLLNNFYPREAKVQWKVDNALQSGNSQESVTEQDSKDSTYSLSSTLTLSKADYEKHKVYACEVTHQGLSSPVTKSFNRGEC
notes: Chimeric ROR1 x 4-1BB BsAb; also called 8F2 IgG x 4-1BB VHH
Regarding B6, the entries for the “EC50 (read off the curve)” value in the assay with ROR1 on cells and in the assay with 4-1BB on cells were about 0.03 nM and about 0.2 nM, respectively.

B7: 4B-10C9 (bispecific antibody, human IgG1, kappa)
heavy: not shown
light: DVVMTQTPLTLSVAIGQPASISCKSSQSLLHINGKTYLNWLLQRPGQSPKLLIYLVSKLESGVPDRFSGSGSGTDFTLKISRVEAEDLGVYYCLQATHFPYTFGSGTKLEIKRTVAAPSVFIFPPSDEQLKSGTASVVCLLNNFYPREAKVQWKVDNALQSGNSQESVTEQDSKDSTYSLSSTLTLSKADYEKHKVYACEVTHQGLSSPVTKSFNRGEC
notes: also called 10C9 IgG x 4-1BB VHH
Consider B7, for which the half-maximal effective concentration (EC50 (read off the curve)) with ROR1 on cells and in the assay with 4-1BB on cells was about 0.3 nM in each case.

B8: 4B-3C5 (bispecific antibody, human IgG1, kappa)
heavy: not shown
light: DIKMTQSPSSMYASLGERVSITCRASQDIYSYLSWFQQKPGKSPKTLIYRANRLVDGVPSRFSGSGSGQDYSLTISSLEYEDMGIYYCLQYDEFPYTFGGGTKLEIKRTVAAPSVFIFPPSDEQLKSGTASVVCLLNNFYPREAKVQWKVDNALQSGNSQESVTEQDSKDSTYSLSSTLTLSKADYEKHKVYACEVTHQGLSSPVTKSFNRGEC
notes: Chimeric ROR1 x 4-1BB BsAb; also called 3C5 IgG x 4-1BB VHH
On to B8, for which the entries for the concentration for a half-maximal effect (EC50 (read off the curve)) with ROR1 on cells and with 4-1BB on cells were about 0.08 nM and about 0.1 nM, respectively.

B9: D46 (antibody, V domains shown)
VH: QVQLVQSGAEVKKPGSSVKVSCKASGGTFSSYAISWVRQAPGQGLEWMGRIIPIFGIANYAQKFQGRVTITADKSTSTAYMELSSLRSEDTAVYYCAITGDYDILTGSYYYGMDVWGQGTTVTVSS
VL: NIQLTQSPSSLSASVGDRVTITCRASQGIRNDLGWYQQKPGKAPKLLIYAASSLQSGVPSRFSGSGSGTDFTLTISSLQPEDFATYYCLQDYNYPFTFGPGTKVDIK
notes: Anti-MUC16 mAb
For the molecule B9, the binding result with huMUC16, AA13789-14451 was “binds”; in the assay with huMUC16, AA14198-14507, “no binding (tested: 100 nM)”. The half-maximal effective concentration (EC50) in the assay with human MUC16 on cells [2] was 0.347 nM.

B10: 4-1BB VHH (VHH)
VHH: QVQLQESGGGLVQPGGSLRLSCAASGYTYSSNCMGWFRQAPGKGLEGVAVICTGGGSPSYADSVKGRFTISRDNAKNTLYLQMNSLRAEDTAVYYCAADLLRAGTPLSSYEFNYWGQGTLVTVSS
As for B10, in the assay with 4-1BB on cells, the EC50 (read off the curve) (commonly the concentration at which the effect is half-maximal) was about 0.2 nM.

B11: D1 (antibody, V domains shown)
VH: QVQLVQSGAEVKKPGSSVKVSCKASGGTFSSYAISWVRQAPGQGLEWMGGIIPIFGTANYAQKFQGRVTITADESTSTAYMELSSLRSEDTAVYYCARAPMVRGVPPTPYYYYYGMDVWGQGTTVTVSS
VL: EIVLTQSPATLSLSPGERATLSCRASQSVSNYLAWYQQKPGQAPRLLIYDASNRATGIPARFSGSGSGTDFTLTISSLEPEDFAVYYCQQRSNWPSFGQGTKVEIK
notes: Anti-MUC16 mAb
For the molecule B11, the binding result with huMUC16, AA13789-14451 is “binds”; with huMUC16, AA14198-14507, “no binding (tested: 100 nM)”. Besides, the EC50 with human MUC16 on cells [5] amounted to 27.6 nM.
